# B1: TAT-EGFP-peptide 1 (STLTASEV), the Targeted peptide (peptide)
# chain: GSTLTASEV
# notes: Detected with anti-GFP; also called Target peptide; not shown: EGFP, N-terminal, kept
# Biological target: T1, HA-tagged GIPC1 (GAIP interacting protein C terminus) (UniProt O14908 1-333)
# T1 construct: GIPC1, scaffold protein with a PDZ domain; The plasmid list begins with 'Human NRP1WT, HA-tagged GIPC1, ...'; it is not clear whether 'Human' also covers GIPC1; also called GIPC1 (HA); source: HEK293T, transfected (pcDNA 3.1 TOPO, FuGENE6), in lysate
# T1 sequence (looked up): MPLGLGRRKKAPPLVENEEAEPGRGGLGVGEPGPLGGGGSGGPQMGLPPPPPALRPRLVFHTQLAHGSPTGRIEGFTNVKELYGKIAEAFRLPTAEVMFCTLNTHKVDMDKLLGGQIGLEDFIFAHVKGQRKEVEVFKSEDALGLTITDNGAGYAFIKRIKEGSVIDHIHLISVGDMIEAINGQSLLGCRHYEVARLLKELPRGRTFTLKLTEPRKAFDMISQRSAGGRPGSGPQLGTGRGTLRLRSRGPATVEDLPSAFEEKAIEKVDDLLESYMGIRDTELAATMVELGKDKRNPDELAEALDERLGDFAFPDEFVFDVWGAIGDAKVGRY
# Test: co-IP; Scrambled or Targeted peptide mixed with lysate of HEK293T overexpressing HA-GIPC1, 1 h rotation at 4°C; co-immunoprecipitated with GIPC1; blot with anti-GFP
# Conditions: one partner purified
binder,measurement,value
B1,fold binding over the Scrambled peptide,3 fold
